Legend:
Test in all cases: purified protein
Assay type in all cases: biochemical, Pseudomonas aeruginosa
purified protein [1] = substrate: CC(=O)SCCNC(=O)CCNC(=O)[C@H](O)C(C)(C)COP(=O)(O)OP(=O)(O)OC[C@H]1O[C@@H](n2cnc3c(N)ncnc32)[C@H](O)[C@@H]1OP(=O)(O)O; details: 0.5 mM oxaloacetate, 50 mM HEPES pH 7.5, 0.1 M KCl, 0.54 M glycerol, 37 °C
purified protein [2] = substrate: O=C(O)CC(=O)C(=O)O; details: 0.5 mM propionyl-CoA, 50 mM HEPES pH 7.5, 0.1 M KCl, 0.54 M glycerol, 37 °C
purified protein [3] = substrate: CCC(=O)SCCNC(=O)CCNC(=O)[C@H](O)C(C)(C)COP(=O)(O)OP(=O)(O)OC[C@H]1O[C@@H](n2cnc3c(N)ncnc32)[C@H](O)[C@@H]1OP(=O)(O)O; details: 0.5 mM oxaloacetate, 50 mM HEPES pH 7.5, 0.1 M KCl, 0.54 M glycerol, 37 °C

B1: PrpCPa (2-methylcitrate synthase, 2-MCS) (Pseudomonas aeruginosa PAO1) (protein)
chain: MAEAKVLSGAGLRGQVAGQTALSTVGQEGAGLTYRGYDVRDLAAAAIFEEVAYLLLYGELPNKQQLDAYLKKLQGQRDLPQALKEVLERIPKDAHPMDVMRTGASVLGTLEPELSFDQQRDVADRLLAAFPAIMTYWYRFTHEGQRIDCNSDEPTIGGHFLALLHGKKPSELHVKVMNVSLILYAEHEFNASTFTARVCASTLSDLYSCVTGAIGSLRGPLHGGANEAAMELIERFSSPQEATAELLKMLERKDKIMGFGHAIYKDSDPRNEVIKGWSKQLADEVGDKVLFAVSEAIDKTMWEQKKLFPNADFYHASAYHFMGIPTKLFTPIFVCSRTSGWTAHVFEQRANNRIIRPSAEYTGVEQRAFVPLEQR
notes: pET-19m, N-terminal TEV-cleavable His6 tag, cut; E. coli host; homodimer
Km (purified protein [1]): 28 µM
kcat/Km (purified protein [1]): 114000 M⁻¹ s⁻¹
Km (purified protein [2]): 15.65 µM
kcat/Km (purified protein [2]): 228000 M⁻¹ s⁻¹
Km (purified protein [3]): 45 µM
